Paper PMC5013695

Target: 14-3-3β (UniProt Q9CQV8)
Experiment: co-IP with anti-FLAG beads, 14-3-3β blot
Settings: reference: FLAG-Bmal1 wild type; sites S42

Chain of UniProt Q9CQV8 (Q9CQV8 whole entry, looked up): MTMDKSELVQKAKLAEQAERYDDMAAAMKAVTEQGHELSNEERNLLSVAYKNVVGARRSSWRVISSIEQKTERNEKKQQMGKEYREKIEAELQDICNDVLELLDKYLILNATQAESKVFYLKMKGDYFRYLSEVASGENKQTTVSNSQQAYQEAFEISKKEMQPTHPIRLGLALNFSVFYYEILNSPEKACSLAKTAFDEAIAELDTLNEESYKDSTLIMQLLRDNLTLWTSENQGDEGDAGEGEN

Bmal1 (from UniProt Q9WTL8-4) FLAG-Bmal1 S42A
binding against the reference: weaker
